Source: patent US20040043378

Target: T1, wild type HIV-1 Tat protein, FLAG-tagged, expressed in cells
T1 chain: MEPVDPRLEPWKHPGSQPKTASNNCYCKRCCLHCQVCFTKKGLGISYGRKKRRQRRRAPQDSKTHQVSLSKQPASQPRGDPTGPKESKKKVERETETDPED

B1: P/CAF (p300/CBP-associated factor), HA-tagged, expressed in cells (protein)
chain: MSEAGGAGPGGCGAGAGAGAGPGALPPQPAALPPAPPQGSPCAAAAGGSGACGPATAVAAAGTAEGPGGGGSARIAVKKAQLRSAPRAKKLEKLGVYSACKAEESCKCNGWKNPNPSPTPPRADLQQIIVSLTESCRSCSHALAAHVSHLENVSEEEMNRLLGIVLDVEYLFTCVHKEEDADTKQVYFYLFKLLRKSILQRGKPVVEGSLEKKPPFEKPSIEQGVNNFVQYKFSHLPAKERQTIVELAKMFLNRINYWHLEAPSQRRLRSPNDDISGYKENYTRWLCYCNVPQFCDSLPRYETTQVFGRTLLRSVFTVMRRQLLEQARQEKDKLPLEKRTLILTHFPKFLSMLEEEVYSQNSPIWDQDFLSASSRTSQLGIQTVINPPPVAGTISYNSTSSSLEQPNAGSSSPACKASSGLEANPGEKRKMTDSHVLEEAKKPRVMGDIPMELINEVMSTITDPAAMLGPETNFLSAHSARDEAARLEERRGVIEFHVVGNSLNQKPNKKILMWLVGLQNVFSHQLPRMPKEYITRLVFDPKHKTLALIKDGRVIGGICFRMFPSQGFTEIVFCAVTSNEQVKGYGTHLMNHLKEYHIKHDILNFLTYADEYAIGYFKKQGFSKEIKIPKTKYVGYIKDYEGATLMGCELNPRIPYTEFSVIIKKQKEIIKKLIERKQAQIRKVYPGLSCFKDGVRQIPIESIPGIRETGWKPSGKEKSKEPRDPDQLYSTLKSILQQVKSHQSAWPFMEPVKRTEAPGYYEVIRFPMDLKTMSERLKNRYYVSKKLFMADLQRVFTNCKEYNAAESEYYKCANILEKFFFSKIKEAGLIDK
- Superinduction of Tat transactivation activity: as much as a 30-fold increase upon P/CAF stimulation
